Measured values published in patent publication US20240261333A1 (published 2024).

Tests used:
Assay in all cases: co-IP, anti-FLAG, lysate of cells with C-FLAG B3GNT2; mass spectrometry
DDX5 = biological target: T1, DDX5 (human, UniProt P17844 1-614)
T1 construct: also called NP_001307526.1
Method: (§1) Cells were plated in 10-cm cell culture dishes and grown to 60-80% confluency. For each condition, two biological replicates were harvested for co-IP. Cells were washed with PBS and 4 mL of lysis buffer (20 mM HEPES, 1% Triton X-100, 150 mM NaCl, 1 mM EDTA, and 10% glycerol) containing protease inhibitor cocktail was added. Cells were scraped and lysate was incubated at 4° C. under rotary agitation for 1 h. Lysate was centrifuged at 14,000×g for 10 min at 4° C. Supernatant was transferred to a new tube and an aliquot was taken as the input. […] For Western blots, 10 μg/mL Chicken Anti-FLAG (Aves labs ET-DY100) and IgY control (R&D Systems AB-101-C) antibodies were biotinylated (Thermo Fisher Scientific 90407) and added to the respective conditions. Lysates with antibodies were incubated at 4° C. under rotary agitation overnight. For each mL of lysate, 50 μL of Pierce Protein A/G Magnetic Beads (Mass spectrometry; Thermo Fisher Scientific 88803) or Pierce Streptavidin Magnetic Beads (Western blot; Thermo Fisher Scientific 88817) was washed twice with lysis buffer. Lysates with antibodies were added to the beads and incubated at 4° C. under rotary agitation for 4 h. Beads were washed with lysis buffer 3 times and resuspended in lysis buffer for storage.
(§2) Magnetic beads were resuspended in 100 mM Tris pH 7.8, reduced, alkylated and digested with trypsin at 37° ° C. overnight. This solution was subjected to solid phase extraction to concentrate the peptides and remove unwanted reagents followed by injection onto a Shimadzu HPLC with fraction collector. Eight fractions were collected and after concentration were injected on a Waters NanoAcquity HPLC equipped with a self-packed Aeris 3 μm C18 analytical column 0.075 mm by 20 cm, (Phenomenex). Peptides were eluted using standard reverse-phase gradients. The effluent from the column was analyzed using a Thermo Orbitrap Elite mass spectrometer (nanospray configuration) operated in a data dependent manner for 54 minutes. The resulting fragmentation spectra were correlated against the known database using Proteome Discover 1.4 (Thermo Fisher Scientific).

ATXN2 = biological target: T2, ATXN2 (human, UniProt Q99700 1-1313)
T2 construct: also called NP_002964.3
Method: as §1, §2

UBAP2L = biological target: T3, UBAP2L (human, UniProt Q14157 1-1087)
T3 construct: also called NP_055662.3 (+3)
T3 sequence (looked up): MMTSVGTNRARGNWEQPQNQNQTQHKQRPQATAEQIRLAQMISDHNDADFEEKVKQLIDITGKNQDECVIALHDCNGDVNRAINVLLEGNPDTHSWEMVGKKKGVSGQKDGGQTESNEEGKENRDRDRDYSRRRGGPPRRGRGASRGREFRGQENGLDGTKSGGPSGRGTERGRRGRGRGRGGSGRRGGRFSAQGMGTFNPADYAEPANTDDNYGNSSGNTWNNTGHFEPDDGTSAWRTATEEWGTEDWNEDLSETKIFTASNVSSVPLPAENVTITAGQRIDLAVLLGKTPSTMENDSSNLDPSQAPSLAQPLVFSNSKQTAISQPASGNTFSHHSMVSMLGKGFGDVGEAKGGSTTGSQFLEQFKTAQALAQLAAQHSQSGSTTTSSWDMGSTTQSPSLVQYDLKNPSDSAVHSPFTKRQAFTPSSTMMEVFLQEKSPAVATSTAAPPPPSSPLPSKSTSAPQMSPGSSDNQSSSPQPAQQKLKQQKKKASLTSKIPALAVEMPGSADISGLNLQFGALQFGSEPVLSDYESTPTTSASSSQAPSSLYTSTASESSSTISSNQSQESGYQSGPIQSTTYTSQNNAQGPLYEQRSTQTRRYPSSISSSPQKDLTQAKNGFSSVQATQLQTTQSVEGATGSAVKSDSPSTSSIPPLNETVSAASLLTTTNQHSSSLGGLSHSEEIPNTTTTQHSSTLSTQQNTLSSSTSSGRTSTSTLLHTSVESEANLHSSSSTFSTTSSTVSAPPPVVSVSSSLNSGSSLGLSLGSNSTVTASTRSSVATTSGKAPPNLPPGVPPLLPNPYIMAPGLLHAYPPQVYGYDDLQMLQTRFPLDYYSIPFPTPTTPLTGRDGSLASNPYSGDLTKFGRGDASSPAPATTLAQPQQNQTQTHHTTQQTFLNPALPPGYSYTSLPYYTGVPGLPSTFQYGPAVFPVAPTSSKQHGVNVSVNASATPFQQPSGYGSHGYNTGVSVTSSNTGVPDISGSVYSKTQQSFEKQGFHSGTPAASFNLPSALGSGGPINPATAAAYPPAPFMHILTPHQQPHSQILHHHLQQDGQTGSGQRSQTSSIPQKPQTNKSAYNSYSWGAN
Method: as §1, §2

RBM39 = biological target: T4, RBM39 (human, UniProt Q14498-3 2-508, limits assumed)
T4 construct: also called NP_001310351.1 (+3)
T4 sequence (looked up): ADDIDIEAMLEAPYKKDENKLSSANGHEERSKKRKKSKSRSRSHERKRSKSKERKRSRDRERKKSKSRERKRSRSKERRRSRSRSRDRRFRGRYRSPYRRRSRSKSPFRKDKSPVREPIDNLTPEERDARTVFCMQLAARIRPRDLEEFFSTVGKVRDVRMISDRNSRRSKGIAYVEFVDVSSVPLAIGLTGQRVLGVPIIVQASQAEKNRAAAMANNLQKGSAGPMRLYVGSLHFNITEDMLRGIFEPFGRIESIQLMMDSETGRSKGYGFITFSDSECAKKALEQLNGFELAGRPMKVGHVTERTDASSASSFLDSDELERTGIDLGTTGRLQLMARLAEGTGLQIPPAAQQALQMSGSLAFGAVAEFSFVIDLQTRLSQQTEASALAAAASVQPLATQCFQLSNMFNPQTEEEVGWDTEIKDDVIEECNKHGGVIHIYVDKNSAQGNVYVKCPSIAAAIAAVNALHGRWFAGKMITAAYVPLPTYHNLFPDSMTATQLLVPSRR
Method: as §1, §2

HNRNPA2B1 = biological target: T5, HNRNPA2B1 (human, UniProt P22626-2 1-341)
T5 construct: also called NP_002128.1 (+1)
Method: as §1, §2

T1 sequence (P17844 whole entry): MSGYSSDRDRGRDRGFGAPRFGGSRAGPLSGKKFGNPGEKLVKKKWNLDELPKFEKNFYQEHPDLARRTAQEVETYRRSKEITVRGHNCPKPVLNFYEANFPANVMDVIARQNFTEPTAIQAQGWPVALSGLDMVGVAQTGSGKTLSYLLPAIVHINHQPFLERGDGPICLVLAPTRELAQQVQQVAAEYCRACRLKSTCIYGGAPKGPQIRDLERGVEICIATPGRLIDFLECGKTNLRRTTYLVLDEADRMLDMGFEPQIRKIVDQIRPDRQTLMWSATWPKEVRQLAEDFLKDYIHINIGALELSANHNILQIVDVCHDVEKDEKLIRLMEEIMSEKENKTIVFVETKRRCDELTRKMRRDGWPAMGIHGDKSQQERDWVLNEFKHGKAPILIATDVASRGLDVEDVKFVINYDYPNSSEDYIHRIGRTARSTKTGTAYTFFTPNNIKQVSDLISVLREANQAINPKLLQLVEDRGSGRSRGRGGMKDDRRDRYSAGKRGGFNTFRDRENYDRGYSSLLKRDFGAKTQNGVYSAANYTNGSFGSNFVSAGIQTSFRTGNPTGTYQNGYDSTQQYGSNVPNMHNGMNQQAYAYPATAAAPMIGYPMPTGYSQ
T2 sequence (Q99700 whole entry): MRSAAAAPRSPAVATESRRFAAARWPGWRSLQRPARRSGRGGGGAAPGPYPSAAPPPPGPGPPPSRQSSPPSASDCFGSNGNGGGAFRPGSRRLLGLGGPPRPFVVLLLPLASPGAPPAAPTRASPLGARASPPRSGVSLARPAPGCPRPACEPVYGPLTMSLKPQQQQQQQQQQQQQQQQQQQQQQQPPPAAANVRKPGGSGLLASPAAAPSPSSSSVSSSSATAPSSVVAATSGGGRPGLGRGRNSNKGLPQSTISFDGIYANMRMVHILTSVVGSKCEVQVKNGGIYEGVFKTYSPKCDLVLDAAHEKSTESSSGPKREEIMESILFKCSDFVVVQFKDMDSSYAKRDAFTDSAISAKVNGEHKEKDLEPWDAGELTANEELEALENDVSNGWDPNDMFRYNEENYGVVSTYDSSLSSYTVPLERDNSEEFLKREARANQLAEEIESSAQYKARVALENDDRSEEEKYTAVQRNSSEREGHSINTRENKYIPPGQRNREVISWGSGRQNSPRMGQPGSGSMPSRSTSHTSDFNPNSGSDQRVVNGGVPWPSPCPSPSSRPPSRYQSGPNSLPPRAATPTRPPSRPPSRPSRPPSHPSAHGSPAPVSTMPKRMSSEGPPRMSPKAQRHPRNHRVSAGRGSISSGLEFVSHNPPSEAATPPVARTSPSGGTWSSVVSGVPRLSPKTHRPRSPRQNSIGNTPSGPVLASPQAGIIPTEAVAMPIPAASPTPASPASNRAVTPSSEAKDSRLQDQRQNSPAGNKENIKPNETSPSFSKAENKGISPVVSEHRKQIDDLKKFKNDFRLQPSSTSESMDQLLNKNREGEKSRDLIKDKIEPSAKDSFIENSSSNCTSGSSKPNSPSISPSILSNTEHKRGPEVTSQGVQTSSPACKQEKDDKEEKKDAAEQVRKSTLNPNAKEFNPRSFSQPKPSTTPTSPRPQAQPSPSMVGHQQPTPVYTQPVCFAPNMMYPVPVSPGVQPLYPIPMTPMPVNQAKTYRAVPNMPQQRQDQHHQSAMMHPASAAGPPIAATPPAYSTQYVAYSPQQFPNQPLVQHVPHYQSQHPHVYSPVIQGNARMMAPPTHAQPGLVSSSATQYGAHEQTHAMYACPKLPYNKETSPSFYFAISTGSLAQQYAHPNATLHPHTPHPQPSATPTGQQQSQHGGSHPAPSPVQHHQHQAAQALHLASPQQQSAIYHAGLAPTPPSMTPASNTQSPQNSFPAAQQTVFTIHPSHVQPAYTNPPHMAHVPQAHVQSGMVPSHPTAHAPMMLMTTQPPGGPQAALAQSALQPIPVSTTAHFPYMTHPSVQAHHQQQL
T5 sequence (P22626 other isoform, or with tags, fused parts or gaps limits assumed): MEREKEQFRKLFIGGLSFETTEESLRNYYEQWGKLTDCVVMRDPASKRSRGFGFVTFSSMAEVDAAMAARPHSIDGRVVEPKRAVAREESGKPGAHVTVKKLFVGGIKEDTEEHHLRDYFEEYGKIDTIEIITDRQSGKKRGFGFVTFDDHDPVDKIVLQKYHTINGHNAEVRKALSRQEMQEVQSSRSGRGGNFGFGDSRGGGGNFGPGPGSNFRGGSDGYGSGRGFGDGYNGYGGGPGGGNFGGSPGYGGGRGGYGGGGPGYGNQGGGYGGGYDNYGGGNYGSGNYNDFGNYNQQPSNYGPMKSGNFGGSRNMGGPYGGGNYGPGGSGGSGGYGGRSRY

B1: C-terminal FLAG tagged B3GNT2 (enzyme, human, UniProt Q9NY97 1-397, looked up)
chain: MSVGRRRIKLLGILMMANVFIYFIMEVSKSSSQEKNGKGEVIIPKEKFWKISTPPEAYWNREQEKLNRQYNPILSMLTNQTGEAGRLSNISHLNYCEPDLRVTSVVTGFNNLPDRFKDFLLYLRCRNYSLLIDQPDKCAKKPFLLLAIKSLTPHFARRQAIRESWGQESNAGNQTVVRVFLLGQTPPEDNHPDLSDMLKFESEKHQDILMWNYRDTFFNLSLKEVLFLRWVSTSCPDTEFVFKGDDDVFVNTHHILNYLNSLSKTKAKDLFIGDVIHNAGPHRDKKLKYYIPEVVYSGLYPPYAGGGGFLYSGHLALRLYHITDQVHLYPIDDVYTGMCLQKLGLVPEKHKGFRTFDIEEKNKNNICSYVDLMLVHSRKPQEMIDIWSQLQSAHLKC
notes: Overexpressed in cells and pulled down from the lysate with mouse anti-FLAG antibody; also called C-FLAG B3GNT2; C-term flag; not shown: C-terminal FLAG tag
For B1, the “co-IP mass spectrometry count” value (DDX5) was 22, the “co-IP mass spectrometry count” value (ATXN2) was 3 and the “co-IP mass spectrometry count” value (UBAP2L) was 19. The “co-IP mass spectrometry count” value (RBM39) was 5 and the “co-IP mass spectrometry count” value (HNRNPA2B1) was 8.
